The source of these data is US20190233495A1 (Sanofi, published 2019).

Non-standard residues stand in square brackets, D forms with d. Phe(4-F) = N[C@@H](Cc1ccc(F)cc1)C(=O)O; 1Nal = N[C@@H](Cc1cccc2ccccc12)C(=O)O; αMeL = CC(C)C[C@](C)(N)C(=O)O; Nle = CCCC[C@H](N)C(=O)O; Aib = CC(C)(N)C(=O)O

B1: SEQ ID NO: 59 (peptide)
peptide: Ac-LEGREKVRAQI[Aib][Aib]EGQST[Phe(4-F)]S[Aib]RKK-NH2
SMILES: CC[C@H](C)[C@H](NC(=O)[C@H](CCC(N)=O)NC(=O)[C@H](C)NC(=O)[C@H](CCCNC(=N)N)NC(=O)[C@@H](NC(=O)[C@H](CCCCN)NC(=O)[C@H](CCC(=O)O)NC(=O)[C@H](CCCNC(=N)N)NC(=O)CNC(=O)[C@H](CCC(=O)O)NC(=O)[C@H](CC(C)C)NC(C)=O)C(C)C)C(=O)NC(C)(C)C(=O)NC(C)(C)C(=O)N[C@@H](CCC(=O)O)C(=O)NCC(=O)N[C@@H](CCC(N)=O)C(=O)N[C@@H](CO)C(=O)N[C@H](C(=O)N[C@@H](Cc1ccc(F)cc1)C(=O)N[C@@H](CO)C(=O)NC(C)(C)C(=O)N[C@@H](CCCNC(=N)N)C(=O)N[C@@H](CCCCN)C(=O)N[C@@H](CCCCN)C(N)=O)[C@@H](C)O
B2: SEQ ID NO: 8 (peptide)
peptide: Ac-LEGREKVRAQI[Aib]IEG[Nle]SKWSKRKK-NH2
SMILES: CCCC[C@H](NC(=O)CNC(=O)[C@H](CCC(=O)O)NC(=O)[C@@H](NC(=O)C(C)(C)NC(=O)[C@@H](NC(=O)[C@H](CCC(N)=O)NC(=O)[C@H](C)NC(=O)[C@H](CCCNC(=N)N)NC(=O)[C@@H](NC(=O)[C@H](CCCCN)NC(=O)[C@H](CCC(=O)O)NC(=O)[C@H](CCCNC(=N)N)NC(=O)CNC(=O)[C@H](CCC(=O)O)NC(=O)[C@H](CC(C)C)NC(C)=O)C(C)C)[C@@H](C)CC)[C@@H](C)CC)C(=O)N[C@@H](CO)C(=O)N[C@@H](CCCCN)C(=O)N[C@@H](Cc1c[nH]c2ccccc12)C(=O)N[C@@H](CO)C(=O)N[C@@H](CCCCN)C(=O)N[C@@H](CCCNC(=N)N)C(=O)N[C@@H](CCCCN)C(=O)N[C@@H](CCCCN)C(N)=O
B3: SEQ ID NO: 7 (peptide)
peptide: Ac-LEGREKVR[Aib]QI[Aib]IEGMSKWSKRKK-NH2
SMILES: CC[C@H](C)[C@H](NC(=O)[C@H](CCC(N)=O)NC(=O)C(C)(C)NC(=O)[C@H](CCCNC(=N)N)NC(=O)[C@@H](NC(=O)[C@H](CCCCN)NC(=O)[C@H](CCC(=O)O)NC(=O)[C@H](CCCNC(=N)N)NC(=O)CNC(=O)[C@H](CCC(=O)O)NC(=O)[C@H](CC(C)C)NC(C)=O)C(C)C)C(=O)NC(C)(C)C(=O)N[C@H](C(=O)N[C@@H](CCC(=O)O)C(=O)NCC(=O)N[C@@H](CCSC)C(=O)N[C@@H](CO)C(=O)N[C@@H](CCCCN)C(=O)N[C@@H](Cc1c[nH]c2ccccc12)C(=O)N[C@@H](CO)C(=O)N[C@@H](CCCCN)C(=O)N[C@@H](CCCNC(=N)N)C(=O)N[C@@H](CCCCN)C(=O)N[C@@H](CCCCN)C(N)=O)[C@@H](C)CC
B4: SEQ ID NO: 9 (peptide)
peptide: Ac-LEGREKVRAQI[Aib]IEGMSK[1Nal]SKRKK-NH2
SMILES: CC[C@H](C)[C@H](NC(=O)[C@H](CCC(N)=O)NC(=O)[C@H](C)NC(=O)[C@H](CCCNC(=N)N)NC(=O)[C@@H](NC(=O)[C@H](CCCCN)NC(=O)[C@H](CCC(=O)O)NC(=O)[C@H](CCCNC(=N)N)NC(=O)CNC(=O)[C@H](CCC(=O)O)NC(=O)[C@H](CC(C)C)NC(C)=O)C(C)C)C(=O)NC(C)(C)C(=O)N[C@H](C(=O)N[C@@H](CCC(=O)O)C(=O)NCC(=O)N[C@@H](CCSC)C(=O)N[C@@H](CO)C(=O)N[C@@H](CCCCN)C(=O)N[C@@H](Cc1cccc2ccccc12)C(=O)N[C@@H](CO)C(=O)N[C@@H](CCCCN)C(=O)N[C@@H](CCCNC(=N)N)C(=O)N[C@@H](CCCCN)C(=O)N[C@@H](CCCCN)C(N)=O)[C@@H](C)CC
B5: SEQ ID NO: 10 (peptide)
peptide: Ac-LEGREKVRAQI[Aib][Aib]EGMSTWSKRKK-NH2
SMILES: CC[C@H](C)[C@H](NC(=O)[C@H](CCC(N)=O)NC(=O)[C@H](C)NC(=O)[C@H](CCCNC(=N)N)NC(=O)[C@@H](NC(=O)[C@H](CCCCN)NC(=O)[C@H](CCC(=O)O)NC(=O)[C@H](CCCNC(=N)N)NC(=O)CNC(=O)[C@H](CCC(=O)O)NC(=O)[C@H](CC(C)C)NC(C)=O)C(C)C)C(=O)NC(C)(C)C(=O)NC(C)(C)C(=O)N[C@@H](CCC(=O)O)C(=O)NCC(=O)N[C@@H](CCSC)C(=O)N[C@@H](CO)C(=O)N[C@H](C(=O)N[C@@H](Cc1c[nH]c2ccccc12)C(=O)N[C@@H](CO)C(=O)N[C@@H](CCCCN)C(=O)N[C@@H](CCCNC(=N)N)C(=O)N[C@@H](CCCCN)C(=O)N[C@@H](CCCCN)C(N)=O)[C@@H](C)O
B6: SEQ ID NO: 57 (peptide)
peptide: Ac-LEGREKVRAQI[Aib][Aib]EGQSTFS[Aib]RKK-NH2
SMILES: CC[C@H](C)[C@H](NC(=O)[C@H](CCC(N)=O)NC(=O)[C@H](C)NC(=O)[C@H](CCCNC(=N)N)NC(=O)[C@@H](NC(=O)[C@H](CCCCN)NC(=O)[C@H](CCC(=O)O)NC(=O)[C@H](CCCNC(=N)N)NC(=O)CNC(=O)[C@H](CCC(=O)O)NC(=O)[C@H](CC(C)C)NC(C)=O)C(C)C)C(=O)NC(C)(C)C(=O)NC(C)(C)C(=O)N[C@@H](CCC(=O)O)C(=O)NCC(=O)N[C@@H](CCC(N)=O)C(=O)N[C@@H](CO)C(=O)N[C@H](C(=O)N[C@@H](Cc1ccccc1)C(=O)N[C@@H](CO)C(=O)NC(C)(C)C(=O)N[C@@H](CCCNC(=N)N)C(=O)N[C@@H](CCCCN)C(=O)N[C@@H](CCCCN)C(N)=O)[C@@H](C)O
B7: SEQ ID NO: 56 (peptide)
peptide: Ac-[αMeL]EGREKVRAK(Ac)I[Aib][Aib]EG[Nle]STWS[Aib]RKK(Ac)-NH2
SMILES: CCCC[C@H](NC(=O)CNC(=O)[C@H](CCC(=O)O)NC(=O)C(C)(C)NC(=O)C(C)(C)NC(=O)[C@@H](NC(=O)[C@H](CCCCNC(C)=O)NC(=O)[C@H](C)NC(=O)[C@H](CCCNC(=N)N)NC(=O)[C@@H](NC(=O)[C@H](CCCCN)NC(=O)[C@H](CCC(=O)O)NC(=O)[C@H](CCCNC(=N)N)NC(=O)CNC(=O)[C@H](CCC(=O)O)NC(=O)[C@](C)(CC(C)C)NC(C)=O)C(C)C)[C@@H](C)CC)C(=O)N[C@@H](CO)C(=O)N[C@H](C(=O)N[C@@H](Cc1c[nH]c2ccccc12)C(=O)N[C@@H](CO)C(=O)NC(C)(C)C(=O)N[C@@H](CCCNC(=N)N)C(=O)N[C@@H](CCCCN)C(=O)N[C@@H](CCCCNC(C)=O)C(N)=O)[C@@H](C)O
B8: SEQ ID NO: 11 (peptide)
peptide: Ac-[Aib]EGREKVRAQI[Aib][Aib]EGMSKWSKRKK-NH2
SMILES: CC[C@H](C)[C@H](NC(=O)[C@H](CCC(N)=O)NC(=O)[C@H](C)NC(=O)[C@H](CCCNC(=N)N)NC(=O)[C@@H](NC(=O)[C@H](CCCCN)NC(=O)[C@H](CCC(=O)O)NC(=O)[C@H](CCCNC(=N)N)NC(=O)CNC(=O)[C@H](CCC(=O)O)NC(=O)C(C)(C)NC(C)=O)C(C)C)C(=O)NC(C)(C)C(=O)NC(C)(C)C(=O)N[C@@H](CCC(=O)O)C(=O)NCC(=O)N[C@@H](CCSC)C(=O)N[C@@H](CO)C(=O)N[C@@H](CCCCN)C(=O)N[C@@H](Cc1c[nH]c2ccccc12)C(=O)N[C@@H](CO)C(=O)N[C@@H](CCCCN)C(=O)N[C@@H](CCCNC(=N)N)C(=O)N[C@@H](CCCCN)C(=O)N[C@@H](CCCCN)C(N)=O
B9: SEQ ID NO: 58 (peptide)
peptide: Ac-LEGREKVRAQI[Aib][Aib]EGQSTYS[Aib]RKK-NH2
SMILES: CC[C@H](C)[C@H](NC(=O)[C@H](CCC(N)=O)NC(=O)[C@H](C)NC(=O)[C@H](CCCNC(=N)N)NC(=O)[C@@H](NC(=O)[C@H](CCCCN)NC(=O)[C@H](CCC(=O)O)NC(=O)[C@H](CCCNC(=N)N)NC(=O)CNC(=O)[C@H](CCC(=O)O)NC(=O)[C@H](CC(C)C)NC(C)=O)C(C)C)C(=O)NC(C)(C)C(=O)NC(C)(C)C(=O)N[C@@H](CCC(=O)O)C(=O)NCC(=O)N[C@@H](CCC(N)=O)C(=O)N[C@@H](CO)C(=O)N[C@H](C(=O)N[C@@H](Cc1ccc(O)cc1)C(=O)N[C@@H](CO)C(=O)NC(C)(C)C(=O)N[C@@H](CCCNC(=N)N)C(=O)N[C@@H](CCCCN)C(=O)N[C@@H](CCCCN)C(N)=O)[C@@H](C)O

In this assay the target is T1, RXFP1 receptor (UniProt Q9HBX9 1-757, limits assumed).
T1 sequence (looked up): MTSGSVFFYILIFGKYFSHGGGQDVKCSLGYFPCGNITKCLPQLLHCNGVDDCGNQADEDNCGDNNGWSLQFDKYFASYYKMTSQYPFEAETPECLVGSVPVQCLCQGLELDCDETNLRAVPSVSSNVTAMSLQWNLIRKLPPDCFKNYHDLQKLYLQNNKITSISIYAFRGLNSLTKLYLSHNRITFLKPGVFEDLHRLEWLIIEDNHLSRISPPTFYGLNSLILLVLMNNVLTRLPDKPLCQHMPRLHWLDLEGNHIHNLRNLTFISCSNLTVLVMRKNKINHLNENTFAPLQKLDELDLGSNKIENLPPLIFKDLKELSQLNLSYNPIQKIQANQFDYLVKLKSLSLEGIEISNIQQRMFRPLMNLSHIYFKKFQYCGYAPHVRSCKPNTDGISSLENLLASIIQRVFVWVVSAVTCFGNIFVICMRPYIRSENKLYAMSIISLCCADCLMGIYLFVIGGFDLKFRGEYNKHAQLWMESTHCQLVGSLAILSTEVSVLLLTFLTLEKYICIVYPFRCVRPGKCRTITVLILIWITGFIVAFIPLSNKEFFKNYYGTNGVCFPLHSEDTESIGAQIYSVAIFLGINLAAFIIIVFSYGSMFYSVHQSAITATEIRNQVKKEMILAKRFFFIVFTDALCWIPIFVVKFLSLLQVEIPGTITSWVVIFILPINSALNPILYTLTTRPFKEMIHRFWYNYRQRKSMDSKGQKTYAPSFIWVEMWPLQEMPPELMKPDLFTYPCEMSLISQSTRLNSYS
Description: cell-based or functional assay.
In the case of B1, the “cAMP assay in OVCAR 5 cells EC50” value was 29.8 nM and the “cAMP assay in OVCAR 5 cells Emax” value was determined as 86%.
On the same counts, the results for B2 are 60 nM and 103%.
On to B3, for which the “cAMP assay in OVCAR 5 cells EC50” value was found to be 56.6 nM and the “cAMP assay in OVCAR 5 cells Emax” value is 101%.
On to B4, for which the “cAMP assay in OVCAR 5 cells EC50” value was 37.6 nM and the “cAMP assay in OVCAR 5 cells Emax” value came to 100%.
With B5, the “cAMP assay in OVCAR 5 cells EC50” value was 22.9 nM and the “cAMP assay in OVCAR 5 cells Emax” value was 103%.
With B6, the “cAMP assay in OVCAR 5 cells EC50” value came to 24.4 nM and the “cAMP assay in OVCAR 5 cells Emax” value was found to be 91%.
Take B7: the “cAMP assay in OVCAR 5 cells EC50” value came to 12.3 nM and the “cAMP assay in OVCAR 5 cells Emax” value worked out at 95%.
Taken in the same sequence, the figures for B8 were 44.8 nM and 102%.
Consider B9, for which the “cAMP assay in OVCAR 5 cells EC50” value came to 41 nM and the “cAMP assay in OVCAR 5 cells Emax” value was determined as 93%.
